Results taken from patent publication US20240270821A1, “GIP/GLP1/GCG TRI-RECEPTOR AGONISTS AND USES THEREOF” (priority 2023, published 2024).
Starred links: 1 amine or outer side, 2 acyl side, 3 side chain; linkers in the order of their positions; H or OH if unused. Non-standard residues stand in square brackets, D forms with d. Groups on a side chain read outwards from the residue. No end group written: not given here. *: point of attachment. C20 diacid = O=C(O)CCCCCCCCCCCCCCCCCCC(=O)*; αMePhe(2-F) = C[C@](N)(Cc1ccccc1F)C(=O)O; γGlu = O=C(O)[C@H](CCC(=O)[*:2])N[*:1]; NMeY = CN[C@@H](Cc1ccc(O)cc1)C(=O)O; αMeF = C[C@](N)(Cc1ccccc1)C(=O)O; αMeL = CC(C)C[C@](C)(N)C(=O)O; Orn = NCCC[C@H](N)C(=O)O; AEEA = NCCOCCOCC(=O)O; Aib = CC(C)(N)C(=O)O

B1: Example 298 (peptide)
chain: HXQGTXTSDYSILLDKKAAXAFIEYLIEAGPSSGEPPPSEG
modifications: not fully specified; synthetic construct; SITE 2: note = 2-Aminoisobutyric Acid; SITE 6: note = alpha-methyl-2-fluoro-L-phenylalanine; SITE 17: note = Lysine is chemically modified through conjugation of the epsilon-amino group of the Lysine side chain with (2-[2-(2-Amino-ethoxy)-ethoxy]-acetyl)-(gamma-Glu)-CO-(CH2) 18-
B2: Example 288 (peptide)
chain: YXQGTFTSDFSIXLDKKAQXAFIEYLLEGGPSSGEPPPSEG
modifications: synthetic construct; SITE 2: note = 2-Aminoisobutyric Acid; SITE 13: note = alpha-methyl-leucine; SITE 17: note = Lysine is chemically modified through conjugation of the epsilon-amino group of the Lysine side chain with (2-[2-(2-Amino-ethoxy)-ethoxy]-acetyl)-(gamma-Glu)-CO-(CH2) 18-CO2H; SITE 20: n

Target: hGLP-1R (Homo sapiens, UniProt P43220)
Experiment: cell-based or functional assay

Sequence of hGLP-1R (P43220 24-463): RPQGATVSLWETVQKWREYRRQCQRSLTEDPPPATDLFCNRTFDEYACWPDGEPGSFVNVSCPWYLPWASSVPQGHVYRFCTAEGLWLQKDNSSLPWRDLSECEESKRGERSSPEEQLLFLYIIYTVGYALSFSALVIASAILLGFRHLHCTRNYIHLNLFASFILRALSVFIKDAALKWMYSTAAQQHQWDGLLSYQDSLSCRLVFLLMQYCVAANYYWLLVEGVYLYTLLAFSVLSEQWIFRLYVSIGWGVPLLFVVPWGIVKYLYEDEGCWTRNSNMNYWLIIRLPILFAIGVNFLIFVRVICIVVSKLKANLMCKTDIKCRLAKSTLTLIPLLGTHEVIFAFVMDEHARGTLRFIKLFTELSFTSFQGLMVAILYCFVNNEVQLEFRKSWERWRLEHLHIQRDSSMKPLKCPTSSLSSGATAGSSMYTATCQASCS

Y[Aib]QGTFTSDYSK[αMeL]LDKK([AEEA-γGlu-C20 diacid])AQQAFVQWLIEGGPSSGEPPPSEG-NH2 [Example 315] and [NMeY][Aib]QGT[αMeF]TSDYSILLDKQAAKAFVQWLIEGGPSSGEPPPSEG-NH2 (not fully specified (residue 20)) [Example 302] are within 1.5-fold of each other in Relative cAMP EC50: 0.508 nM for the first, 0.621 nM for the second.

Going from B1 to [NMeY][Aib]QGT[αMeF]TSDYSILLDKIAAKAFVQWLIAGGPSSGEPPPSEG-NH2 (not fully specified (residue 20)) [Example 300], the Relative cAMP EC50 rises from 0.277 nM to 1.05 nM (3.8-fold).

Going from Y[Aib]QGTFTSDYSI[αMeL]LDKIAAK([AEEA-AEEA-γGlu-C20 diacid])[Orn]FVQYLIAGGPSSGEPPPSEG-NH2 [Example 308] to B2, the Relative cAMP EC50 falls from 3.15 nM to 1.89 nM (1.7-fold).

Binder Y[Aib]QGT[αMePhe(2-F)]TSDYSKILDKIAQK([AEEA-γGlu-C20 diacid])AFIEYLLEGGPSSGEPPPSEG-NH2 [Example 311] has a Relative cAMP EC50 of 3.36 nM.

First: Y[Aib]QGTFTSDYSK[αMeL]LDKK([AEEA-γGlu-C20 diacid])AQQAFVQWLIEGGPSSGEPPPSEG-NH2 [Example 315]
Second: [NMeY][Aib]QGT[αMeF]TSDYSILLDKQAAKAFVQWLIEGGPSSGEPPPSEG-NH2 (not fully specified (residue 20)) [Example 302]
The cAMP Rel EC50 (1% HSA) of the first is 1.9-fold higher: 140 nM for the first, 73.6 nM for the second.

B1 and [NMeY][Aib]QGT[αMeF]TSDYSILLDKIAAKAFVQWLIAGGPSSGEPPPSEG-NH2 (not fully specified (residue 20)) [Example 300] are within 1.5-fold of each other in cAMP Rel EC50 (1% HSA): 70.9 nM for the first, 98 nM for the second.

Compared with Y[Aib]QGTFTSDYSI[αMeL]LDKIAAK([AEEA-AEEA-γGlu-C20 diacid])[Orn]FVQYLIAGGPSSGEPPPSEG-NH2 [Example 308], Y[Aib]QGT[αMePhe(2-F)]TSDYSKILDKIAQK([AEEA-γGlu-C20 diacid])AFIEYLLEGGPSSGEPPPSEG-NH2 [Example 311] is 2.3-fold higher in cAMP Rel EC50 (1% HSA): 477 nM for the first, 1080 nM for the second.

Binder B2 has a cAMP Rel EC50 (in the presence of 1% HSA) of 616 nM.

Target: Pro-Link-tagged Human GLP-1R (human) (UniProt P43220)
Experiment: cell-based or functional assay

Sequence of Pro-Link-tagged Human GLP-1R (human) (P43220 24-463): as the sequence (P43220 24-463) above

Going from Y[Aib]QGTFTSDYSK[αMeL]LDKK([AEEA-γGlu-C20 diacid])AQQAFVQWLIEGGPSSGEPPPSEG-NH2 [Example 315] to [NMeY][Aib]QGT[αMeF]TSDYSILLDKQAAKAFVQWLIEGGPSSGEPPPSEG-NH2 (not fully specified (residue 20)) [Example 302], the % Stimulation Max rises from 29.7% to 56.6%.

First: B1
Second: [NMeY][Aib]QGT[αMeF]TSDYSILLDKIAAKAFVQWLIAGGPSSGEPPPSEG-NH2 (not fully specified (residue 20)) [Example 300]
The % Stimulation Max of the first is higher: 86.4% for the first, 40.3% for the second.

Compared with Y[Aib]QGTFTSDYSI[αMeL]LDKIAAK([AEEA-AEEA-γGlu-C20 diacid])[Orn]FVQYLIAGGPSSGEPPPSEG-NH2 [Example 308], B2 is lower in % Stimulation Max: 41.4% for the first, 18% for the second.

Y[Aib]QGT[αMePhe(2-F)]TSDYSKILDKIAQK([AEEA-γGlu-C20 diacid])AFIEYLLEGGPSSGEPPPSEG-NH2 [Example 311] showed a % Stimulation Max of 39.6%.

First: Y[Aib]QGTFTSDYSK[αMeL]LDKK([AEEA-γGlu-C20 diacid])AQQAFVQWLIEGGPSSGEPPPSEG-NH2 [Example 315]
Second: [NMeY][Aib]QGT[αMeF]TSDYSILLDKQAAKAFVQWLIEGGPSSGEPPPSEG-NH2 (not fully specified (residue 20)) [Example 302]
The hGLP1R β-arrestin Rel EC50 of the first is 3-fold lower: 3.76 nM for the first, 11.2 nM for the second.

Going from B1 to [NMeY][Aib]QGT[αMeF]TSDYSILLDKIAAKAFVQWLIAGGPSSGEPPPSEG-NH2 (not fully specified (residue 20)) [Example 300], the hGLP1R β-arrestin Rel EC50 rises from 3.29 nM to 15.7 nM (4.8-fold).

Y[Aib]QGTFTSDYSI[αMeL]LDKIAAK([AEEA-AEEA-γGlu-C20 diacid])[Orn]FVQYLIAGGPSSGEPPPSEG-NH2 [Example 308] and B2 are within 1.5-fold of each other in hGLP1R β-arrestin Rel EC50: 16.9 nM for the first, 16.3 nM for the second.

With Y[Aib]QGT[αMePhe(2-F)]TSDYSKILDKIAQK([AEEA-γGlu-C20 diacid])AFIEYLLEGGPSSGEPPPSEG-NH2 [Example 311] the hGLP1R β-arrestin Rel EC50 was 19.2 nM.

Target: human GLP-1R (SNAP-GLP-1R expressed in HEK293 cells) (human) (UniProt P43220)
Experiment: cell-based or functional assay

Sequence of human GLP-1R (SNAP-GLP-1R expressed in HEK293 cells) (human) (P43220 24-463): as the sequence (P43220 24-463) above

Work on B2 yielded a GLP1R Internalization EC50 of 30.3 nM.

B2 gave an Internalization % TOP of 72.4%.

Target: T1, human GIP receptor (human) (UniProt P48546)
T1 sequence (looked up): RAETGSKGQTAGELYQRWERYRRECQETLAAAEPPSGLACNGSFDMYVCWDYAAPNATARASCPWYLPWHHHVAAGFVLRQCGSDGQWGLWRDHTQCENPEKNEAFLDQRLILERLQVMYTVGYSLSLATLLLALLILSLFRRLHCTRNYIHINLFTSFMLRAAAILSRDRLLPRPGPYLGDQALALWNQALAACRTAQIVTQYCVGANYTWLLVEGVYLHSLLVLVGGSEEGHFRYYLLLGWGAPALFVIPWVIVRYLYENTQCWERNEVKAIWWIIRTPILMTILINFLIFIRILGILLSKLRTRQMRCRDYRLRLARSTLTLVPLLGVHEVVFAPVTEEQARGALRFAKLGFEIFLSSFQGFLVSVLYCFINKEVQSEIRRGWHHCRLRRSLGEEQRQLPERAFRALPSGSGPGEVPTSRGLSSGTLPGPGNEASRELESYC
Experiment: cell-based or functional assay

Compared with Y[Aib]QGTFTSDYSK[αMeL]LDKK([AEEA-γGlu-C20 diacid])AQQAFVQWLIEGGPSSGEPPPSEG-NH2 [Example 315], [NMeY][Aib]QGT[αMeF]TSDYSILLDKQAAKAFVQWLIEGGPSSGEPPPSEG-NH2 (not fully specified (residue 20)) [Example 302] is 1.8-fold higher in Relative cAMP EC50: 0.398 nM for the first, 0.7 nM for the second.

B1 and [NMeY][Aib]QGT[αMeF]TSDYSILLDKIAAKAFVQWLIAGGPSSGEPPPSEG-NH2 (not fully specified (residue 20)) [Example 300] are within 1.5-fold of each other in Relative cAMP EC50: 0.138 nM for the first, 0.0975 nM for the second.

Compared with B2, Y[Aib]QGT[αMePhe(2-F)]TSDYSKILDKIAQK([AEEA-γGlu-C20 diacid])AFIEYLLEGGPSSGEPPPSEG-NH2 [Example 311] is 2.1-fold lower in Relative cAMP EC50: 0.234 nM for the first, 0.113 nM for the second.

Y[Aib]QGTFTSDYSK[αMeL]LDKK([AEEA-γGlu-C20 diacid])AQQAFVQWLIEGGPSSGEPPPSEG-NH2 [Example 315] and [NMeY][Aib]QGT[αMeF]TSDYSILLDKQAAKAFVQWLIEGGPSSGEPPPSEG-NH2 (not fully specified (residue 20)) [Example 302] are within 1.5-fold of each other in cAMP Rel EC50 (1% HSA): 85.1 nM for the first, 91.8 nM for the second.

Compared with B1, [NMeY][Aib]QGT[αMeF]TSDYSILLDKIAAKAFVQWLIAGGPSSGEPPPSEG-NH2 (not fully specified (residue 20)) [Example 300] is 3.2-fold lower in cAMP Rel EC50 (1% HSA): 41.3 nM for the first, 12.9 nM for the second.

First: Y[Aib]QGTFTSDYSI[αMeL]LDKIAAK([AEEA-AEEA-γGlu-C20 diacid])[Orn]FVQYLIAGGPSSGEPPPSEG-NH2 [Example 308]
Second: Y[Aib]QGT[αMePhe(2-F)]TSDYSKILDKIAQK([AEEA-γGlu-C20 diacid])AFIEYLLEGGPSSGEPPPSEG-NH2 [Example 311]
The cAMP Rel EC50 (1% HSA) of the first is 9.1-fold higher: 237 nM for the first, 26.1 nM for the second.

Binder B2 has a cAMP Rel EC50 (in the presence of 1% HSA) of 59.1 nM.

Target: human glucagon receptor (human) (UniProt P47871)
Experiment: cell-based or functional assay

Sequence of human glucagon receptor (human) (P47871 26-477): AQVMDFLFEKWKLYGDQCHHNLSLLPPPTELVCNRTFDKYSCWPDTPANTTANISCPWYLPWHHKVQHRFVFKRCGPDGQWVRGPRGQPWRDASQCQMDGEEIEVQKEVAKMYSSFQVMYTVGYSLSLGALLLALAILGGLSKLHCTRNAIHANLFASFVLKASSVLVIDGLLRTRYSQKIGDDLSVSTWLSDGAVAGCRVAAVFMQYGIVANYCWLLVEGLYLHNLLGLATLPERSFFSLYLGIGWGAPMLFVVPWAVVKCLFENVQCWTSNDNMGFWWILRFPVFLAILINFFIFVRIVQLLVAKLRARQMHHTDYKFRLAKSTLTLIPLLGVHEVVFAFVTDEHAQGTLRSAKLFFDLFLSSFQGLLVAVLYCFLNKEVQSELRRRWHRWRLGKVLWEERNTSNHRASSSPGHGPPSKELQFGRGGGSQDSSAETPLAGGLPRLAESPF

Y[Aib]QGTFTSDYSK[αMeL]LDKK([AEEA-γGlu-C20 diacid])AQQAFVQWLIEGGPSSGEPPPSEG-NH2 [Example 315] and [NMeY][Aib]QGT[αMeF]TSDYSILLDKQAAKAFVQWLIEGGPSSGEPPPSEG-NH2 (not fully specified (residue 20)) [Example 302] are within 1.5-fold of each other in Relative cAMP EC50: 4.05 nM for the first, 4.47 nM for the second.

Compared with B1, [NMeY][Aib]QGT[αMeF]TSDYSILLDKIAAKAFVQWLIAGGPSSGEPPPSEG-NH2 (not fully specified (residue 20)) [Example 300] is 6.3-fold higher in Relative cAMP EC50: 1.04 nM for the first, 6.54 nM for the second.

Compared with Y[Aib]QGTFTSDYSI[αMeL]LDKIAAK([AEEA-AEEA-γGlu-C20 diacid])[Orn]FVQYLIAGGPSSGEPPPSEG-NH2 [Example 308], B2 is 2.7-fold lower in Relative cAMP EC50: 14.2 nM for the first, 5.17 nM for the second.

Work on Y[Aib]QGT[αMePhe(2-F)]TSDYSKILDKIAQK([AEEA-γGlu-C20 diacid])AFIEYLLEGGPSSGEPPPSEG-NH2 [Example 311] yielded a Relative cAMP EC50 of 2.08 nM.

Y[Aib]QGTFTSDYSK[αMeL]LDKK([AEEA-γGlu-C20 diacid])AQQAFVQWLIEGGPSSGEPPPSEG-NH2 [Example 315] and [NMeY][Aib]QGT[αMeF]TSDYSILLDKQAAKAFVQWLIEGGPSSGEPPPSEG-NH2 (not fully specified (residue 20)) [Example 302] are within 1.5-fold of each other in cAMP Rel EC50 (1% HSA): 1560 nM for the first, 1370 nM for the second.

Compared with B1, [NMeY][Aib]QGT[αMeF]TSDYSILLDKIAAKAFVQWLIAGGPSSGEPPPSEG-NH2 (not fully specified (residue 20)) [Example 300] is 1.6-fold lower in cAMP Rel EC50 (1% HSA): 1570 nM for the first, 976 nM for the second.

Going from Y[Aib]QGTFTSDYSI[αMeL]LDKIAAK([AEEA-AEEA-γGlu-C20 diacid])[Orn]FVQYLIAGGPSSGEPPPSEG-NH2 [Example 308] to Y[Aib]QGT[αMePhe(2-F)]TSDYSKILDKIAQK([AEEA-γGlu-C20 diacid])AFIEYLLEGGPSSGEPPPSEG-NH2 [Example 311], the cAMP Rel EC50 (1% HSA) falls from 4950 nM to 2500 nM (2-fold).

Work on B2 yielded a cAMP Rel EC50 (in the presence of 1% HSA) of 3580 nM.
